According to patent US20090178146:

How the values were obtained:
[1] = system: GST-fused peptide corresponding to the SP-3 motif (amino acids 264-295) of NFAT1, wild type
[2] = system: GST-fused SP-3 peptide of NFAT1 (amino acids 264-295) with Ser>Ala substitutions in the serines phosphorylated in cells

Question: With “recombinant DYRK1A protein kinase (Upstate Biotechnology), bacterially expressed” as the substance, how does the “in vitro kinase assay with recombinant kinase, phosphorylation of GST-peptide” value [1] read?
Answer: The value was “DYRK2 and DYRK1A both displayed strong and selective kinase activity towards the SP-3 motif of NFAT1”.

Question: And the “in vitro kinase assay with recombinant kinase, phosphorylation of GST-peptide” value [2]?
Answer: Its value is “neither kinase phosphorylated an SP-3 peptide with Ser>Ala substitutions in the specific serine residues known to be phosphorylated in cells”.
